B1: CXC chemokine receptor 4 (CXCR4) on lentiviral particles (receptor, UniProt P61073 1-352, looked up)
chain: MEGISIYTSDNYTEEMGSGDYDSMKEPCFREENANFNKIFLPTIYSIIFLTGIVGNGLVILVMGYQKKLRSMTDKYRLHLSVADLLFVITLPFWAVDAVANWYFGNFLCKAVHVIYTVNLYSSVLILAFISLDRYLAIVHATNSQRPRKLLAEKVVYVGVWIPALLLTIPDFIFANVSEADDRYICDRFYPNDLWVVVFQFQHIMVGLILPGIVILSCYCIIISKLSHSKGHQKRKALKTTVILILAFFACWLPYYIGISIDSFILLEIIKQGCEFENTVHKWISITEALAFFHCCLNPILYAFLGAKFKTSAQHALTSVSRGSSLKILSKGKRGGHSSVSTESESSSFHSS
notes: also called CXCR4-expressing LVPs

Test [1] addresses T1, full-length CXCL12α, synthetic (human, UniProt P48061-2 22-89).
T1 construct: also called CXC chemokine ligand 12; source: chemically synthesized
Kind of test: SPR; CXCR4 lentiviral particles (8000-8500 RU) immobilised on a CM5 chip; CXCL12 or CXCL14 12.5-200 nM injected in HBS (100 mM HEPES, 150 mM NaCl, 0.005% P20, pH 7.4), 30 ul/min, 25°C; reference: particles from CXCR4-negative cells or none; simple 1-site model; Biacore 3000. Particulars: one partner purified.

The target of test [2] is B1. Nature of the test: cell-based or functional assay.
Test [3] has as its target B1. Kind of test: SPR; CXCR4 lentiviral particles (8000-8500 RU) immobilised on a CM5 chip; CXCL12 or CXCL14 12.5-200 nM injected in HBS (100 mM HEPES, 150 mM NaCl, 0.005% P20, pH 7.4), 30 ul/min, 25°C; reference: particles from CXCR4-negative cells or none; simple 1-site model; Biacore 3000. Particulars: one partner purified. (Surface plasmon resonance follows binding to a sensor surface in real time, without labels.)

The source of these data is article PMC5472405, “Epithelial chemokine CXCL14 synergizes with CXCL12 via allosteric modulation of CXCR4” (The FASEB Journal, 2017).

T1 sequence (P48061 22-89): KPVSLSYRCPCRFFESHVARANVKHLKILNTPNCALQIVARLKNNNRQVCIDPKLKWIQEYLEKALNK

A word on the Kd: it is the equilibrium constant for the complex coming apart. Broadly, the koff is the first-order rate constant of dissociation. What is called kon is a measure of how fast the partners come together. Low readings indicate slow association, high ones fast association. In test [1], B1 returned a Kd of 35 nM, a koff of 0.00428 s⁻¹ and a kon of 122000 M⁻¹ s⁻¹.

B2: CXC chemokine ligand 14 (CXCL14), synthetic (ligand, human, UniProt O95715 35-111, looked up)
chain: SKCKCSRKGPKIRYSDVKKLEMKPKYPHCEEKMVIITTKSVSRYRGQEHCLHPKLQSTKRFIKWYNAWNEKRRVYEE
notes: source: chemically synthesized
Regarding B2, in test [2], the “entry of R5-tropic HIV-1 (pR8Bal) into TZM-bl cells (luciferase reporter), 0-1000 nM CXCL14” value was over 3 fold and the “entry of X4 HIV-1 (pNL4.3) into TZM-bl cells (luciferase reporter), 10-1000 nM CXCL14 alone” value was over 3 fold. In test [3], this molecule came in with a Kd of 8 nM, a dissociation rate constant (koff) of 0.00317 s⁻¹ and a kon of 396000 M⁻¹ s⁻¹.
